83 variants from the supplement of paper PMC7125110 can be followed below.

To fix the notation:
B1: glmS ribozyme (parent)
chain: AUAAAAGCGCCAGAACUACAGAAAUGUAGUUGACGAGGAGGAGGUUUAUCGAAUUUUCGGCGGAUGCCUCCAAA

± gives the standard error. Variants at the floor of the assay were thinned out. Where only a bound is given, the exact number is not on record here.

The variants in the data set derive from B1. Nature of the data set: self-cleavage kobs at 10000 uM GlcN6P; higher = faster cleavage; RNA array. To be noted: with glucosamine-6-phosphate. Put shortly:
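A hybridised Cy3 probe tracked barcoded ribozyme variants, transcribed in situ by E. coli RNA polymerase on sequenced MiSeq chips, at 37 °C. The variants received 40 μM to 10 mM glucosamine-6-phosphate in HEPES/KCl/Mg(OAc)2 buffer. kobs came from decay fits and kcat and KM from weighted Michaelis–Menten fits.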
As for A15G U54C C71G, the “self-cleavage kobs at 10000 uM GlcN6P” value came out at 0.000924 ± 0.00024 s⁻¹.

Turning to A42G U45C U46C, the “self-cleavage kobs at 10000 uM GlcN6P” value is 0.00102 ± 0.00019 s⁻¹.

Take G7U G26U A52C: the “self-cleavage kobs at 10000 uM GlcN6P” value is below 1e-05 s⁻¹.

With G9U U30A U56G, the “self-cleavage kobs at 10000 uM GlcN6P” value was below 1e-05 s⁻¹.

In the case of G7U C8U A12G C70G, the “self-cleavage kobs at 10000 uM GlcN6P” value was 4.36e-05 ± 1.9e-05 s⁻¹.

G29A C34G C67A: the “self-cleavage kobs at 10000 uM GlcN6P” value is below 1e-05 s⁻¹.

Take C11U G40A A52C G62C: the “self-cleavage kobs at 10000 uM GlcN6P” value was below 1e-05 s⁻¹.

With G37C G41A G51U G62U C67A, the “self-cleavage kobs at 10000 uM GlcN6P” value was below 1e-05 s⁻¹.

C10U A15G G35A: the “self-cleavage kobs at 10000 uM GlcN6P” value was below 1e-05 s⁻¹.

For C16A A33C A42C C71U, the “self-cleavage kobs at 10000 uM GlcN6P” value was below 1e-05 s⁻¹.

For C11U A36C G43U, the “self-cleavage kobs at 10000 uM GlcN6P” value is below 1e-05 s⁻¹.

As to G44A U56A A64G, the “self-cleavage kobs at 10000 uM GlcN6P” value turned out to be 0.000101 ± 2.4e-05 s⁻¹.

For G35A G60C C61G A64C G66A, the “self-cleavage kobs at 10000 uM GlcN6P” value is below 1e-05 s⁻¹.

For the variant A12C C16G G37A C67A C71U, the “self-cleavage kobs at 10000 uM GlcN6P” value was below 1e-05 s⁻¹.

On to C10G C34G A36G G44A U45G U57C C61A C70A, for which the “self-cleavage kobs at 10000 uM GlcN6P” value is below 1e-05 s⁻¹.

In the case of A15U U56G C71A, the “self-cleavage kobs at 10000 uM GlcN6P” value is 0.000528 ± 0.00016 s⁻¹.

As to A12U G29C A33U, the “self-cleavage kobs at 10000 uM GlcN6P” value was 4.02e-05 ± 1.2e-05 s⁻¹.

In the case of A6G C11U C34A, the “self-cleavage kobs at 10000 uM GlcN6P” value is below 1e-05 s⁻¹.

G13U A39U A53U C67G: the “self-cleavage kobs at 10000 uM GlcN6P” value worked out at 4.97e-05 ± 1.8e-05 s⁻¹.

Turning to C16G U55G C58U, the “self-cleavage kobs at 10000 uM GlcN6P” value is 5.56e-05 ± 2.5e-05 s⁻¹.

On to A14U G51A U57C, for which the “self-cleavage kobs at 10000 uM GlcN6P” value was below 1e-05 s⁻¹.

In the case of G44A U65G C67U, the “self-cleavage kobs at 10000 uM GlcN6P” value turned out to be 0.00292 ± 0.00045 s⁻¹.

In the case of G29A U56G C67A, the “self-cleavage kobs at 10000 uM GlcN6P” value is 0.000277 ± 5.7e-05 s⁻¹.

With A12C G41A C67A, the “self-cleavage kobs at 10000 uM GlcN6P” value came to 7.76e-05 ± 2.9e-05 s⁻¹.

Take A15G G66U C70A: the “self-cleavage kobs at 10000 uM GlcN6P” value was determined as 8.77e-05 ± 1.7e-05 s⁻¹.

Regarding A15U A39U U55A, the “self-cleavage kobs at 10000 uM GlcN6P” value is 0.00299 ± 0.00069 s⁻¹.

For G37U A52G A64C C70A, the “self-cleavage kobs at 10000 uM GlcN6P” value is below 1e-05 s⁻¹.

Consider A48G G66A, for which the “self-cleavage kobs at 10000 uM GlcN6P” value was 2.4e-05 ± 1.2e-05 s⁻¹.

As to A6U A33G G43C G60U, the “self-cleavage kobs at 10000 uM GlcN6P” value is below 1e-05 s⁻¹.

Regarding A12U A15C C16U, the “self-cleavage kobs at 10000 uM GlcN6P” value was found to be 0.0012 ± 0.00023 s⁻¹.

Turning to G13A G35A G60U C70A, the “self-cleavage kobs at 10000 uM GlcN6P” value is below 1e-05 s⁻¹.

In the case of C34A G35A G40U G41C U46G, the “self-cleavage kobs at 10000 uM GlcN6P” value is below 1e-05 s⁻¹.

For A12U A15U U57G, the “self-cleavage kobs at 10000 uM GlcN6P” value turned out to be 3.38e-05 ± 1.4e-05 s⁻¹.

For U31A G41U A42U G62A, the “self-cleavage kobs at 10000 uM GlcN6P” value was below 1e-05 s⁻¹.

In the case of C11A A12U A14C, the “self-cleavage kobs at 10000 uM GlcN6P” value was determined as 8.7e-05 ± 1.9e-05 s⁻¹.

A15G C50G C68A: the “self-cleavage kobs at 10000 uM GlcN6P” value was determined as 7.87e-05 ± 1.6e-05 s⁻¹.

In the case of G38C A39U U46C, the “self-cleavage kobs at 10000 uM GlcN6P” value is below 1e-05 s⁻¹.

U31A U46G U56G: the “self-cleavage kobs at 10000 uM GlcN6P” value was 0.00127 ± 0.00022 s⁻¹.

As for C11A U47C U55A G59U, the “self-cleavage kobs at 10000 uM GlcN6P” value is 0.00336 ± 0.00065 s⁻¹.

In the case of A6G U30G C68G, the “self-cleavage kobs at 10000 uM GlcN6P” value is below 1e-05 s⁻¹.

C8G A14U A52C G59C C71U: the “self-cleavage kobs at 10000 uM GlcN6P” value is below 1e-05 s⁻¹.

With G7U G29U G37U, the “self-cleavage kobs at 10000 uM GlcN6P” value was below 1e-05 s⁻¹.

In the case of C16A U31G C68U, the “self-cleavage kobs at 10000 uM GlcN6P” value turned out to be 4.49e-05 ± 1.5e-05 s⁻¹.

Turning to G13C A15C U49C, the “self-cleavage kobs at 10000 uM GlcN6P” value is below 1e-05 s⁻¹.

As for G32U G37U G43A A52G C67U, the “self-cleavage kobs at 10000 uM GlcN6P” value was below 1e-05 s⁻¹.

With A23C C71A, the “self-cleavage kobs at 10000 uM GlcN6P” value came out at 0.00399 ± 0.00084 s⁻¹.

Take G7A A12C G51U: the “self-cleavage kobs at 10000 uM GlcN6P” value was below 1e-05 s⁻¹.

Turning to G13A G44C C67A, the “self-cleavage kobs at 10000 uM GlcN6P” value came to 9.29e-05 ± 1.9e-05 s⁻¹.

In the case of C11U C34G G38A, the “self-cleavage kobs at 10000 uM GlcN6P” value is below 1e-05 s⁻¹.

On to A12U A14U G29A, for which the “self-cleavage kobs at 10000 uM GlcN6P” value came to 0.00021 ± 4.5e-05 s⁻¹.

Take U30C A36G U54A: the “self-cleavage kobs at 10000 uM GlcN6P” value is below 1e-05 s⁻¹.

On to C10A G63U C71U, for which the “self-cleavage kobs at 10000 uM GlcN6P” value is below 1e-05 s⁻¹.

As to A6U C16U U45A, the “self-cleavage kobs at 10000 uM GlcN6P” value amounted to 0.000375 ± 6.6e-05 s⁻¹.

On to A20C G44U, for which the “self-cleavage kobs at 10000 uM GlcN6P” value stood at 0.000286 ± 8.9e-05 s⁻¹.

Take A5U A33C: the “self-cleavage kobs at 10000 uM GlcN6P” value turned out to be 0.000263 ± 6.3e-05 s⁻¹.

Turning to A6U A14G A36U A48U G63U, the “self-cleavage kobs at 10000 uM GlcN6P” value is below 1e-05 s⁻¹.

On to G35U G41U A42C G62C C70A, for which the “self-cleavage kobs at 10000 uM GlcN6P” value was below 1e-05 s⁻¹.

Take A12U G32U U54C: the “self-cleavage kobs at 10000 uM GlcN6P” value came out at 0.000319 ± 5.4e-05 s⁻¹.

As for C8G C50G C70G, the “self-cleavage kobs at 10000 uM GlcN6P” value is 0.000104 ± 2.2e-05 s⁻¹.

For C8A C11G A48U C67G C71A, the “self-cleavage kobs at 10000 uM GlcN6P” value is below 1e-05 s⁻¹.

As for G7U G13C G32A, the “self-cleavage kobs at 10000 uM GlcN6P” value is below 1e-05 s⁻¹.

For C61U G62U C67U, the “self-cleavage kobs at 10000 uM GlcN6P” value is below 1e-05 s⁻¹.

In the case of C10G A12G C61U, the “self-cleavage kobs at 10000 uM GlcN6P” value was below 1e-05 s⁻¹.

As to A12C U46C G51U U54A, the “self-cleavage kobs at 10000 uM GlcN6P” value was below 1e-05 s⁻¹.

With A15G U30G G40U, the “self-cleavage kobs at 10000 uM GlcN6P” value is 0.000863 ± 0.00017 s⁻¹.

A15G A39G U55A C58U: the “self-cleavage kobs at 10000 uM GlcN6P” value was determined as 2.43e-05 ± 1.1e-05 s⁻¹.

Regarding G29A A33C G41C C70U, the “self-cleavage kobs at 10000 uM GlcN6P” value was below 1e-05 s⁻¹.

Take G66A C68U C71A: the “self-cleavage kobs at 10000 uM GlcN6P” value worked out at 0.000105 ± 1.9e-05 s⁻¹.

Regarding C11U G66U C71G, the “self-cleavage kobs at 10000 uM GlcN6P” value was below 1e-05 s⁻¹.

In the case of A12G A15U U31G, the “self-cleavage kobs at 10000 uM GlcN6P” value is 0.000128 ± 2.3e-05 s⁻¹.

Turning to G9A A53G G66U, the “self-cleavage kobs at 10000 uM GlcN6P” value is below 1e-05 s⁻¹.

Consider G9U U31G C34U G59U, for which the “self-cleavage kobs at 10000 uM GlcN6P” value was below 1e-05 s⁻¹.

In the case of G13U A39U C71U, the “self-cleavage kobs at 10000 uM GlcN6P” value is 0.000606 ± 0.00012 s⁻¹.

In the case of G38U G41U A48U A52G U56C G60A C68G C71U, the “self-cleavage kobs at 10000 uM GlcN6P” value was below 1e-05 s⁻¹.

For C10G U30A G37C A39U G62A, the “self-cleavage kobs at 10000 uM GlcN6P” value was below 1e-05 s⁻¹.

Regarding A12G G21U A53U U69A, the “self-cleavage kobs at 10000 uM GlcN6P” value was determined as 0.0001 ± 2.2e-05 s⁻¹.

In the case of G7U G13U C16U C50G U56G G66U, the “self-cleavage kobs at 10000 uM GlcN6P” value was 3.32e-05 ± 1.5e-05 s⁻¹.

Take G13C G29U G66A C71U: the “self-cleavage kobs at 10000 uM GlcN6P” value is 3.46e-05 ± 1.2e-05 s⁻¹.

Consider A12G G43U G60C, for which the “self-cleavage kobs at 10000 uM GlcN6P” value was below 1e-05 s⁻¹.

With G13A G37A, the “self-cleavage kobs at 10000 uM GlcN6P” value was 4.89e-05 ± 1.1e-05 s⁻¹.

Consider A39U G51U C70A, for which the “self-cleavage kobs at 10000 uM GlcN6P” value was below 1e-05 s⁻¹.

In the case of G32U U54C C70A, the “self-cleavage kobs at 10000 uM GlcN6P” value was found to be 4.27e-05 ± 1.5e-05 s⁻¹.

For the variant G7A C11U C61U U65G C68A, the “self-cleavage kobs at 10000 uM GlcN6P” value was 0.000318 ± 0.0001 s⁻¹.
